From PMC4267659 (Nucleic Acids Research, 2014)

How the values were obtained:
Assay in all cases: native gel or EMSA
[1] = target: T1, P. horikoshii aEF1α K125L mutant (Pyrococcus horikoshii, UniProt O59153 1-428, K125L)
T1 sequence: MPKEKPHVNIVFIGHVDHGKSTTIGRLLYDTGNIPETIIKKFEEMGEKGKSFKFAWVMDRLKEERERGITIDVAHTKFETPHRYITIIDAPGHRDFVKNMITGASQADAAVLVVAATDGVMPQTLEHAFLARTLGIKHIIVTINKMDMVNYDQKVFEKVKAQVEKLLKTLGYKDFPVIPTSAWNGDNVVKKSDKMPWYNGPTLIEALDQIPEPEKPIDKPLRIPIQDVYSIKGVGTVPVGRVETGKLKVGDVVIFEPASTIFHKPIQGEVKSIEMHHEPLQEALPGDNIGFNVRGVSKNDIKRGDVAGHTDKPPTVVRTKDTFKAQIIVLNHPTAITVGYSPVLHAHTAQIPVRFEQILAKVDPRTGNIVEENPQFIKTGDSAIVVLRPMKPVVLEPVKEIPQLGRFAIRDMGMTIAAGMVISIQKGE

[2] = target: T2, P. horikoshii aEF1α S423L mutant (Pyrococcus horikoshii, UniProt O59153 1-428, S423L)
T2 sequence: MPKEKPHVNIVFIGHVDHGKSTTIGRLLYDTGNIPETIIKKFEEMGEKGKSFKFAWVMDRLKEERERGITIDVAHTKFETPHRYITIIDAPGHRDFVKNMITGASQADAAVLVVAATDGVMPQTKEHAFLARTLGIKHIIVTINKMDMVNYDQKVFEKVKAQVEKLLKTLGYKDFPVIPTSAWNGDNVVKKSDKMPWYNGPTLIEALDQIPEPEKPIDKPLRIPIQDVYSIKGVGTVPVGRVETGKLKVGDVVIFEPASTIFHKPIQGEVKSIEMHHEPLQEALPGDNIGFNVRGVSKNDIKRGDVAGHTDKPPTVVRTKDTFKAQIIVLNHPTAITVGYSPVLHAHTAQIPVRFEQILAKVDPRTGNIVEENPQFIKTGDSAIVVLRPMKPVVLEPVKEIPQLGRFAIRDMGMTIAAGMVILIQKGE

[3] = target: T3, P. horikoshii aEF1α L359S mutant (Pyrococcus horikoshii, UniProt O59153 1-428, L359S)
T3 sequence: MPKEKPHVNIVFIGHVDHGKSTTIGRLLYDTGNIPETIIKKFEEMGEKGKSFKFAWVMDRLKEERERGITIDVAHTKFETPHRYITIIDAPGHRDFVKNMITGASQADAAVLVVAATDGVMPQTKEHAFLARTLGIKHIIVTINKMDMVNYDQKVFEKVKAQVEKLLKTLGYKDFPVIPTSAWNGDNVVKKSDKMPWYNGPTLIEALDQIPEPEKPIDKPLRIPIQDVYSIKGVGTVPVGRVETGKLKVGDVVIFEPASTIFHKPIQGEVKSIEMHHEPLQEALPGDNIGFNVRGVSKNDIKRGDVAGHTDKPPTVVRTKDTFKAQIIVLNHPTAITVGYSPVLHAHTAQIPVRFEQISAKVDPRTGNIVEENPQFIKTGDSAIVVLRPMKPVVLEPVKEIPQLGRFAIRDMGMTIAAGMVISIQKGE

[4] = target: T4, P. horikoshii aEF1α L166S mutant (Pyrococcus horikoshii, UniProt O59153 1-428, L166S)
T4 sequence: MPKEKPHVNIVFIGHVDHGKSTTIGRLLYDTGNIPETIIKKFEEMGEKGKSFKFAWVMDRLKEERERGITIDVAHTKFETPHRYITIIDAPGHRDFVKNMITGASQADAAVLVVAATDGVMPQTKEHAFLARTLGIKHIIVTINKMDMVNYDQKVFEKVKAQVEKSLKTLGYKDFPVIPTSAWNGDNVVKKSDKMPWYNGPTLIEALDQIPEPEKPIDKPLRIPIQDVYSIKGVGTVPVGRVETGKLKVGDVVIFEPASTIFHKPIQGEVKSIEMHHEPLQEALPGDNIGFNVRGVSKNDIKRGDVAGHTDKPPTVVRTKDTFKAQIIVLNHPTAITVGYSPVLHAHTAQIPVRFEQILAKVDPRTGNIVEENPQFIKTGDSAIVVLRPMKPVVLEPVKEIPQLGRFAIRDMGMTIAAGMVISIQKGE

[5] = target: T5, P. horikoshii aEF1α R132L mutant (Pyrococcus horikoshii, UniProt O59153 1-428, R132L)
T5 sequence: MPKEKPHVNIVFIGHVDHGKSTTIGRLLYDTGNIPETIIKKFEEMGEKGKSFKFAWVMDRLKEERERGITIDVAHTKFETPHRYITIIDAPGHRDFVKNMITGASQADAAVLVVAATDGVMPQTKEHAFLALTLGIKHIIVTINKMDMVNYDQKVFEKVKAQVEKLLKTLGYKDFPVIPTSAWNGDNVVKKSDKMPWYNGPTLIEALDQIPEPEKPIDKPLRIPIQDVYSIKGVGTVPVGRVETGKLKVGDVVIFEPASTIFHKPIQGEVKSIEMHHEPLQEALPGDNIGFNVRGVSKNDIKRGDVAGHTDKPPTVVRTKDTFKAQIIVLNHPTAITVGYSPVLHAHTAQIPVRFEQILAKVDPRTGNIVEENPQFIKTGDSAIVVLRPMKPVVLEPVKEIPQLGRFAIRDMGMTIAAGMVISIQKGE

[6] = target: T6, P. horikoshii aEF1α A360S mutant (Pyrococcus horikoshii, UniProt O59153 1-428, A360S)
T6 sequence: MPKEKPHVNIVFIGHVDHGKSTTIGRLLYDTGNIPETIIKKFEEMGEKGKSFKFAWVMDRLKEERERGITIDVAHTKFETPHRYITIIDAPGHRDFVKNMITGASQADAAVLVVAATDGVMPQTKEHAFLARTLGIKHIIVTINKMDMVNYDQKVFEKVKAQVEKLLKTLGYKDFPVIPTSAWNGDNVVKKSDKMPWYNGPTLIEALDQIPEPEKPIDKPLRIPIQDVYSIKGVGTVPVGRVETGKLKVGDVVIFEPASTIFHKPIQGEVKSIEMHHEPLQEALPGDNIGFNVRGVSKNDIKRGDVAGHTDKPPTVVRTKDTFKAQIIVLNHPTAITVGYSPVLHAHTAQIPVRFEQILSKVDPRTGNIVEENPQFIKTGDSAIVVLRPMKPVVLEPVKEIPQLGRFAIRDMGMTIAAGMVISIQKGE

[7] = target: T7, Pyrococcus horikoshii elongation factor aEF1α, wild type (Pyrococcus horikoshii, UniProt O59153 1-428)
T7 sequence: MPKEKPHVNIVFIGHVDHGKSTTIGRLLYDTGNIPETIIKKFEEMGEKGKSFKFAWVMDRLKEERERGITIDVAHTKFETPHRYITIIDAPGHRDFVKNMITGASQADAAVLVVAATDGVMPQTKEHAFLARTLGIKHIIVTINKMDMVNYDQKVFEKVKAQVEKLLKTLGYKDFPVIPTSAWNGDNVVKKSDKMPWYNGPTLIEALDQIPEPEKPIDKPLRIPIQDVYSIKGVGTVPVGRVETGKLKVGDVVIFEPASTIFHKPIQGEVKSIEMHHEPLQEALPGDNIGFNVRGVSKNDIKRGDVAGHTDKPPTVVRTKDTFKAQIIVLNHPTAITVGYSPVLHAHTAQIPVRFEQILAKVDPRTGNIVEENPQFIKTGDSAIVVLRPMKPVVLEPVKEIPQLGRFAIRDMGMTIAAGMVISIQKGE

Measured: binding result

B1: Pyrococcus horikoshii ribosomal stalk protein aP1, wild type (natural protein, UniProt O57705 1-108, looked up)
chain: MEYVYAALLLHSVGKEINEENLKAVLQAAGVEPEEARIKALVAALEGVNIDEVIEKAAMPVAVAAAPAAAPAEAGGEEKKEEEKKEEEEKEEEVSEEEALAGLSALFG
not listed: [7]
binds: all other assays above

B2: P. horikoshii aP1 L100S mutant (natural protein, Pyrococcus horikoshii, UniProt O57705 1-108, looked up)
chain: MEYVYAALLLHSVGKEINEENLKAVLQAAGVEPEEARIKALVAALEGVNIDEVIEKAAMPVAVAAAPAAAPAEAGGEEKKEEEKKEEEEKEEEVSEEEASAGLSALFG
binds: [7]
